# Measurements: US20220259289A1 (Janssen / Centocor, published 2022)
# Where a chain is given by its changes, count along the chain named.
# B1: ISOP120AR5P1B5 (designed binder, not shown: small tags and cut ends)
# chain: LPAPKNLVVSRVTEDYARLSWKYGEHIIWFDSFLIQYQESEKVGEAIVLTVPGSERSYDLTGLKPGTEYTVSIYGVKGQHDHDSNPLSAIFTT
# notes: FN3 domain (Centyrin); tested as E. coli lysate
# B2: ISOP120ER5P1C6 (designed binder, not shown: small tags and cut ends)
# chain: LPAPKNLVVSRVTEDSARLSWTAPDAAFDSFSIYYGEWHALGEAIVLTVPGSERSYDLTGLKPGTEYVVTIYGVKGGTYSLPLSAISTT
# notes: as for B1
# B3: ISOP120ER5P1E10 (designed binder, not shown: small tags and cut ends)
# chain: B2 chain with S32E, G36M, W38D, H39F, A40H, L41S, V68W, K75E, Y79G, S87F
# notes: as for B1
# B4: ISOP120HR5P1G6 (designed binder, not shown: small tags and cut ends)
# chain: LPAPKNLVVSRVTEDSARLSWTAPDAAFDSFEIYYFELRLGGEAIVLTVPGSERSYDLTGLKPGTEYLVTIYGVKGGLDSQPLSAIFTT
# notes: as for B1
# B5: ISOP120HR5P1B4 (designed binder, not shown: small tags and cut ends)
# chain: B2 chain with W38Y, H39Y, A40N, T78G, L81N, S87F
# notes: as for B1
# B6: ISOP120HR5P1D7 (designed binder, not shown: small tags and cut ends)
# chain: B4 chain with E32D, F36L, L38S, R39W, L40T, G41R, L78S, D79Y, Q81R
# notes: as for B1
# B7: ISOP120HR5P1G4 (designed binder, not shown: small tags and cut ends)
# chain: B4 chain with F36R, L38Y, R39W, L40Y, G41S, L78W, D79Y, Q81D
# notes: as for B1
# B8: ISOP120HR5P1A3 (designed binder, not shown: small tags and cut ends)
# chain: B4 chain with F36A, L38F, R39G, L40Y, G41Y, L68T, L78W, D79Y, Q81T
# notes: as for B1
# B9: ISOP120HR5P1H4 (designed binder, not shown: small tags and cut ends)
# chain: B4 chain with E32D, Y34L, F36L, L38P, R39Y, L40Q, G41E, L78Y, D79Y, Q81L
# notes: as for B1
# B10: ISOP120FR5P1C2 (designed binder, not shown: small tags and cut ends)
# chain: B4 chain with E32D, Y34N, L38Q, R39P, L40K, L78P, D79Y, Q81P
# notes: as for B1
# B11: ISOP120HR5P1A7 (designed binder, not shown: small tags and cut ends)
# chain: B4 chain with F36A, L38P, L40Y, G41Y, L68T, L78Y, D79Y, Q81S
# notes: as for B1
# B12: ISOP120HR5P1H8 (designed binder, not shown: small tags and cut ends)
# chain: B4 chain with E32D, F36Y, L78Y, D79Y, Q81G
# notes: as for B1
# B13: ISOP120ER5P1H6 (designed binder, not shown: small tags and cut ends)
# chain: B2 chain with S87F
# notes: as for B1
# B14: ISOP120HR5P1D9 (designed binder, not shown: small tags and cut ends)
# chain: B4 chain with E32D, F36R, R39D, L40F, G41Q, T70I, L78S, D79Y, Q81Y, P82T
# notes: as for B1
# B15: ISOP120FR5P1H5 (designed binder, not shown: small tags and cut ends)
# chain: B4 chain with F31L, E32Q, L38W, R39V, L40V, P63L, L78N, D79F, Q81D
# notes: as for B1
# B16: ISOP120FR5P1F1 (designed binder, not shown: small tags and cut ends)
# chain: B4 chain with E32T, L38N, R39E, L40N, G77C, L78D, D79W, Q81D
# notes: as for B1
# B17: ISOP120HR5P1F9 (designed binder, not shown: small tags and cut ends)
# chain: B4 chain with E32Y, F36R, L38H, R39W, L40T, G41I, L78A, D79Y, Q81N
# notes: as for B1
# B18: ISOP120FR5P1A11 (designed binder, not shown: small tags and cut ends)
# chain: B4 chain with E32T, L38N, R39E, L40N, L78H, D79W, Q81R
# notes: as for B1
# B19: ISOP120AR5P1B12 (designed binder, not shown: small tags and cut ends)
# chain: LPAPKNLVVSRVTEDSARLSWDGDKWANFKFDSFLIQYQESEKVGEAIVLTVPGSERSYDLTGLKPGTEYTVSIYGVGLHYIVYDSNPLSAIFTT
# notes: FN3 domain (Centyrin)
# B20: ISOP120FR5P1E10 (designed binder, not shown: small tags and cut ends)
# chain: LPAPKNLVVSRVTEDSARLSWTAPDAAFDSFLIHYTEQPSKGEAIVLTVPGSERSYDLTGLKPGTEYQVPIGVKGGTQSCPLSAIFTT
# notes: as for B1
# B21: ISOP120ER5P1A7 (designed binder, not shown: small tags and cut ends)
# chain: LPAPKNLVVSRVTEDSARLSWTAPDAAFDSFNIGYYERIIPGEAIVLTVPGSERSYDLTGLKPGTEYSVLICGVKGGKGSIPLSAIFTT
# notes: as for B1
# B22: ISOP120HR5P1E7 (designed binder, not shown: small tags and cut ends)
# chain: LPAPKNLVVSRVTEDSARLSWTAPDAAFDSFQIYYLEQLGYGEAIVLTVPGSERSYDLTGLKPGTEYLVTIYGVKVCEQSYPLSAIFTT
# notes: as for B1
# B23: ISOP120ER5P1B12 (designed binder, not shown: small tags and cut ends)
# chain: LPAPKNLVVSRVTEDSARLSWTAPDAAFDSFAIYYIEWTAYGEAIVLTVPGSERSYDLTGLKPGTEYVVRISGVKCGIVSFPLSAIFTT
# notes: as for B1
# B24: ISOP120BR5P1F1 (designed binder, not shown: small tags and cut ends)
# chain: LPAPKNLVVSRVTEDSARLSWTFHPTFEGFDSFLIQYQESEKVGEAIVLTVPGSERSYDLTGLKPGTEYTVSIYGVKWTVLRPWLSNPLSAIFTT
# notes: as for B1
# B25: ISOP120BR5P1D2 (designed binder, not shown: small tags and cut ends)
# chain: LPAPKNLVVSRVTEDSARLSWIRKHNHVKWFDSFLIQYQESEKVGEAIVLTVPGSERSYDLTGLKPGTEYTVSIYGVGFLIDTDDSNPLSAIFTT
# notes: as for B1
# B26: ISOP120FR5P1E9 (designed binder, not shown: small tags and cut ends)
# chain: LPAPKNLVVSRVTEDSARLSWTAPDAAFDSFIIYYPEYISNGEAIVLTVPGSERSYDLTGLKPGTEYHVTIGVKGGHSWPLSAIFTT
# notes: as for B1
# B27: ISOP120FR5P1A6 (designed binder, not shown: small tags and cut ends)
# chain: LPAPKNLVVSRVTEDSARLSWTAPDAAFDSFIIRYLEDISYGEAIVLTVPGSERSYDLTGLKPGTEYHVGIEGVKGGNVSFPLSAIFTT
# notes: as for B1
# B28: ISOP120ER5P1F4 (designed binder, not shown: small tags and cut ends)
# chain: B27 chain with I32V, L36I, I39T, S40V, Y41M, G70S, N78P, V79S, F81L
# notes: as for B1
# B29: ISOP120ER5P1E5 (designed binder, not shown: small tags and cut ends)
# chain: B27 chain with I32R, R34S, I39V, S40Y, E72H, N78I, V79D
# notes: as for B1
# B30: ISOP120FR5P1H6 (designed binder, not shown: small tags and cut ends)
# chain: B27 chain with I32G, R34P, S40E, Y41V, T59A, E72Y, N78E, V79Q
# notes: as for B1
# B31: ISOP120HR5P1B5 (designed binder, not shown: small tags and cut ends)
# chain: B27 chain with L36I, D38E, I39G, S40Y, N78Y, V79Y, F81Y
# notes: as for B1
# B32: ISOP120ER5P1H4 (designed binder, not shown: small tags and cut ends)
# chain: B27 chain with I32N, R34M, I39V, S40Q, Y41C, E72N, N78L, V79R
# notes: as for B1
# B33: ISOP120AR5P1G8 (designed binder, not shown: small tags and cut ends)
# chain: LPAPKNLVVSRVTEDSARLSWHATFGDPFDSFLIQYQESEKVGEAIVLTVPGSERSYDLTGLKPGTEYTVSIYGVGRHYTVYDSNPLSAIFTT
# notes: as for B1
# B34: ISOP120AR5P1D9 (designed binder, not shown: small tags and cut ends)
# chain: B33 chain with H22N, A23T, T24D, F25W, G26V, D27H, P28T
# notes: as for B1
# B35: ISOP120BR5P1C1 (designed binder, not shown: small tags and cut ends)
# chain: LPAPKNLVVSRVTEDSARLSWVREDAYAFDSFLIQYQESEKVGEAIVLTVPGSERSYDLTGLKPGTEYTVSIYGVSSLHWVVHDSNPLSAIFTT
# notes: as for B1
# Target: unrelated Fc-fused recombinant protein (negative control)
# Assay: ELISA, bacterial lysate on plate-bound antigen, luminescence
row,ELISA Fc Control (RLU),Binder
1,400 RLU,B1
2,320 RLU,B2
3,720 RLU,B3
4,400 RLU,B4
5,320 RLU,B5
6,320 RLU,B6
7,320 RLU,B7
8,560 RLU,B8
9,480 RLU,B9
10,240 RLU,B10
11,400 RLU,B11
12,320 RLU,B12
13,320 RLU,B13
14,480 RLU,B14
15,400 RLU,B15
16,480 RLU,B16
17,400 RLU,B17
18,480 RLU,B18

row,ELISA Fc Control (RLU),Binder
1,400 RLU,B19
2,240 RLU,B20
3,400 RLU,B21
4,480 RLU,B22
5,720 RLU,B23
6,480 RLU,B24
7,720 RLU,B25
8,320 RLU,B26
9,400 RLU,B27
10,320 RLU,B28
11,240 RLU,B29
12,320 RLU,B30
13,320 RLU,B31
14,480 RLU,B32
15,320 RLU,B33
16,320 RLU,B34
17,480 RLU,B35

# Target: T1, recombinant biotinylated human CD137 protein (Fc-fusion protein, R&D Systems 838-4B) (human, UniProt Q07011 24-186, biotinylated (site not stated))
# T1 construct: Bought Fc fusion; The ELISA used the same antigen as the panning; also called CD137-Fc; biotinylated CD137; not shown: Fc part of the bought fusion protein
# Assay: as above
# Protocol: (§1) Streptavidin-coated Maxisorp plates (Nunc catalog 436110) were blocked for 1 h in Starting Block T20 (Pierce) and then coated with biotinylated CD137 (using same antigen as in panning) or negative controls (an unrelated Fc-fused recombinant protein and human serum albumin) for 1 h. Plates were rinsed with TBST and diluted lysate was applied to plates for 1 h. Following additional rinses, wells were treated with HRP-conjugated anti-Centyrin antibody (PAB25) for 1 h and then assayed with POD (Roche catalog 11582950001).
row,ELISA CD137-Fc (RLU),Binder
1,501000 RLU,B1
2,495000 RLU,B2
3,810000 RLU,B3
4,2.04e+06 RLU,B4
5,1.19e+06 RLU,B5
6,1.1e+06 RLU,B6
7,347000 RLU,B7
8,1.08e+06 RLU,B8
9,630000 RLU,B9
10,389000 RLU,B10
11,987000 RLU,B11
12,2.22e+06 RLU,B12
13,589000 RLU,B13
14,405000 RLU,B14
15,460000 RLU,B15
16,1.23e+06 RLU,B16
17,1.18e+06 RLU,B17
18,920000 RLU,B18

row,ELISA CD137-Fc (RLU),Binder
1,864000 RLU,B19
2,953000 RLU,B20
3,1.11e+06 RLU,B21
4,363000 RLU,B22
5,1.44e+06 RLU,B23
6,542000 RLU,B24
7,361000 RLU,B25
8,1.18e+06 RLU,B26
9,1.4e+06 RLU,B27
10,537000 RLU,B28
11,413000 RLU,B29
12,357000 RLU,B30
13,520000 RLU,B31
14,1.07e+06 RLU,B32
15,541000 RLU,B33
16,636000 RLU,B34
17,438000 RLU,B35

# Target: T2, human serum albumin (human, UniProt P02768 25-609)
# T2 construct: Negative control antigen of the screening ELISA; also called HSA
# T2 sequence (P02768 25-609 limits assumed): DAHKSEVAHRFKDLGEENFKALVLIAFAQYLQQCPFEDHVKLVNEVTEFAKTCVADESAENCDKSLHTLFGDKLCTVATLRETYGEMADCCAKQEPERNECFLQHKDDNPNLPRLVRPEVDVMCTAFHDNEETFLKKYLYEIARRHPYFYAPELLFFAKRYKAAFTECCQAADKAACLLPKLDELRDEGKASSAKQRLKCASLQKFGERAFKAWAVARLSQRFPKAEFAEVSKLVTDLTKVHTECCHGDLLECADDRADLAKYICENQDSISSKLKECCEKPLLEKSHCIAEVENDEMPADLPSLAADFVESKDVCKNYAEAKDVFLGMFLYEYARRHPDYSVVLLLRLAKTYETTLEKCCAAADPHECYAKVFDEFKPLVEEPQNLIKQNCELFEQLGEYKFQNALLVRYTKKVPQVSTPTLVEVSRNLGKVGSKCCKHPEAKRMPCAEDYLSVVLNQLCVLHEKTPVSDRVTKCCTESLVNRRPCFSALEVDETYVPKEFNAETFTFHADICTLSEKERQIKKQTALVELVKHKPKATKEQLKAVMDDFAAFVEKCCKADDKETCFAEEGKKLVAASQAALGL
# Assay: as above
# Protocol: as §1
row,ELISA HSA (RLU),Binder
1,320 RLU,B1
2,400 RLU,B2
3,400 RLU,B3
4,320 RLU,B4
5,320 RLU,B5
6,320 RLU,B6
7,480 RLU,B7
8,240 RLU,B8
9,320 RLU,B9
10,400 RLU,B10
11,480 RLU,B11
12,400 RLU,B12
13,480 RLU,B13
14,400 RLU,B14
15,560 RLU,B15
16,640 RLU,B16
17,400 RLU,B17
18,480 RLU,B18

row,ELISA HSA (RLU),Binder
1,480 RLU,B19
2,320 RLU,B20
3,400 RLU,B21
4,480 RLU,B22
5,800 RLU,B23
6,480 RLU,B24
7,240 RLU,B25
8,400 RLU,B26
9,320 RLU,B27
10,400 RLU,B28
11,320 RLU,B29
12,320 RLU,B30
13,240 RLU,B31
14,560 RLU,B32
15,320 RLU,B33
16,320 RLU,B34
17,480 RLU,B35
